# From article PMC12302554
# Assays:
# [1] = system: BCMA-CD19-His fusion protein (bispecific BC19 CAR ectodomain: anti-BCMA scFv + humanized anti-CD19 scFv + hinge); experiment: SPR; details: multi-cycle kinetics, 1:1 fit, 7.8-125 nM aptamer; SPR: Biacore 1K, CM5 chip, protein coupled at 20 ug/mL in sodium acetate pH 5.0 (running buffer not given); cell binding: D-PBS, 4.5 g/L glucose, 5 mM MgCl2, 0.
# [2] = system: BC19 CAR on CAR-T cells (anti-BCMA scFv, humanized anti-CD19 scFv, hinge); experiment: flow cytometry; details: SPR: Biacore 1K, CM5 chip, protein coupled at 20 ug/mL in sodium acetate pH 5.0 (running buffer not given); cell binding: D-PBS, 4.5 g/L glucose, 5 mM MgCl2, 0.
Sequence,Kd [1] [nM],Kd [2] [nM]
TTCAGCACTCCACGCATAGCACGCTGCCGTGTGCTGCATGTGGTCGTGTGTCCGTGCCTATGCGTGCTACCGTGAA [Aptamer A3],37,–
TTCAGCACTCCACGCATAGCACGCTGCCGTGTGCTGCATGTGGTCGTGTGTCCGTGCCTATGCGTGCTACCGTGAA [FAM-Aptamer A3],–,17
